From the supplement of paper PMC9170038

Test system: MS2 coat protein
Experiment: apparent KD of MS2 coat protein; designed switch direction (-1 OFF switch, 1 ON switch): -1; higher = weaker reporter binding
Method in brief: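 The buffer was Tris-HCl pH 7.5 with KCl, MgCl2, BSA, DTT, tRNA and Tween-20. In it, SNAP-549-labelled MS2 coat protein was titrated in doubling steps from 0.7 or 1.5 nM to 3 µM over chip-bound RNA switches transcribed by stalled E. coli RNA polymerase on Illumina chips. Apparent KD is the per-design median over clusters of curve fits to normalised fluorescence.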

[1] = Eterna round: R95, input ligand: microRNA oligo, concentration not stated
[2] = Eterna round: R95, input ligand: FMN 200 uM
[3] = Eterna round: R95, input ligand: none
[4] = input ligand: microRNA oligo, concentration not stated

Sequence | apparent KD of MS2 coat protein (input ligand: FMN 200 uM) [nM] | apparent KD of MS2 coat protein (input ligand: none) [nM] | apparent KD of MS2 coat protein [1] [nM] | apparent KD of MS2 coat protein [2] [nM] | apparent KD of MS2 coat protein [3] [nM] | apparent KD of MS2 coat protein [4] [nM]
CCUUAGUCACAGGAUAUGCUCAUCUAAUGAUGAGCAGAAGGGUGAACAUGAGGAUCACCCAUGUUUAUCAAGGG [Omei Ex6 E3] (Eterna round: R97, puzzle: Exclusion 6) | 300 | 274 |  |  |  | 
UUUUUGUGAGGAUAUCAGUAGUAAAAAAAUAAAAUUACUACUGAGAAGGCACAUGAGGAUCACCCAUGUUCUUU [salish99_ex4_r3_012] (puzzle: Exclusion 4) |  |  | 18.4 |  |  | 
UAUUACUCAGGAUAUAUGAUGUGAAACAUGAGGAUCACCCAUGUAAUAUUAUGGAUGUAAAUAGAAGGGAGAUUUU [Mat - Exclusion 5 - JL mod - D18] (puzzle: Exclusion 5) |  |  | 68.4 | 51.8 | 54.8 | 
ACAUGAGGAUCACCCAUGUGGACGUAAAGGCUCAUGUAGAGUGAGGAUAUGUGAGACGAACGAGAACAGAAGGCACAAGACAGG [Deportation 6 - Jieux - Exclusion NG 3] (Eterna round: R96, puzzle: Exclusion NG 3) | 15.7 | 19.9 |  |  |  | 16.7
CUGUACUGAGGAUAUACAUGAGGAUCACCCAUGUGAUUCAGUGCACGCGUACGUGUACGUAGAAGGCAGUACAG [Mat - Exclusion 3 - Eli Mod - D37] (Eterna round: R97, puzzle: Exclusion 3) | 750 | 42.5 |  |  |  | 
GCAGCUAACUGUGAUAACAGCACAUGAGGAUCACCCAUGUCUGAGGAUAUGGACUGGAUUACAGUCCAGAAGGCAGAAUGCUGC [Zipper Style 7] (Eterna round: R96, puzzle: Exclusion NG 3) | 10.8 | 13.4 |  |  |  | 8.87
CUUUUGUGAGGAUAUCAGUAGUAAAUAAAUAAAAUUACUACUGAGAAGGCACAUGAGGAUCACCCAUGUUCCUC [salish99_ex4_r3_015] (puzzle: Exclusion 4) |  |  | 37.4 |  |  | 
CAGUACUGAGGAUAUACAUGAGGAUCACCCAUGUGUUCCAGCUAGGAAACUAGCGAAAGUAGAAGGCAGUACUG [salish99_ex3_r3_068] (Eterna round: R96, puzzle: Exclusion 3) | 562 | 24.6 |  |  |  | 19.9
CAUAUAGUAGUCAGGAUAUGCGAAGAGAGAAGGAAGUAGAAGGGACAUGAGGAUCACCCAUGUAUAUUGUAAAG [EX-4 Malc #3] (puzzle: Brourd's mod of Exclusion 4) |  |  | 28.9 | 29.6 | 28.4 | 
AUUUAACAUGAGGAUCACCCAUGUGAGGAUAUGCGAGUAUAGACUUCGGUCUGAUAGAGCAGAAGGCGCAGAUA [EX1 #8] (Eterna round: R97, puzzle: Exclusion 1) | 67.7 | 55.9 |  |  |  | 
GCACGGAGUGUAGGAUAUUAGUGCGAUUAGCACUGAGAAGGACAUGAGGAUCACCCAUGUUCCUCAAUAACAUACCUUCCGUGC [Eli exng1 - 042] (Eterna round: R96, puzzle: Exclusion NG 1) |  |  |  |  |  | 9.5
UUUUCGUAAGGAUAUGGUUAGAUCUACGAAAGUAGAUCUAACCAGAAGGUACAUGAGGAUCACCCAUGUUGAUA [Mod of Brourd 21 - Jieux - Exclusion 4] (Eterna round: R97, puzzle: Exclusion 4) | 32 | 22.5 |  |  |  | 
UUUCUUGGGCAAGGAUAUCCUGUGCGGUUCCGGCUCGUGUCUGUCACAUGAGGAUCACCCAUGUGGGAGAAGGUGCCUGCGGUC [Design 82] (Eterna round: R96, puzzle: Exclusion NG 2) | 14.4 | 14.9 |  |  |  | 11.2
AAGAAACAUGAGGAUCACCCAUGUGAGGAUAUGAUGAAGAAAAGAAAAGAAAGAAGAAUCAGAAGGCACAAAGG [salish99-ex1_r3_043] (puzzle: Exclusion 1) |  |  | 48.2 | 83.6 | 66.5 | 
GACCGGGCAGGAUAUACAAAACCUCGGUGUAUUUUGGACCGACAUGAGGAUCACCCAUGUAGAAGGGCCUAAGG [Eternabot (Original) Solution 4] (Eterna round: R97, puzzle: Exclusion 2) | 34.2 | 23.6 |  |  |  | 
AUAAUGUGAGGAUAUCACGGCCCGGAGAAUCCGGUAAACGAUGAGAAGGCACAUGAGGAUCACCCAUGUUCCUG [EX4 A.4] (Eterna round: R97, puzzle: Exclusion 4) | 44.3 | 18.3 |  |  |  | 
AAAGUAGACCUUGAAGCAUCGUAAACAUGAGGAUCACCCAUGUAGGAUAUGGGUAGCUAUGCUAGCCAGAAGGAUGUGUGGUGA [Eternabot solution 16] (Eterna round: R96, puzzle: Exclusion NG 3) | 335 | 54.4 |  |  |  | 39

Sequence | apparent KD of MS2 coat protein (input ligand: FMN 200 uM) [nM] | apparent KD of MS2 coat protein (input ligand: none) [nM] | apparent KD of MS2 coat protein [1] [nM] | apparent KD of MS2 coat protein [2] [nM] | apparent KD of MS2 coat protein [3] [nM] | apparent KD of MS2 coat protein [4] [nM]
CCUCAGUGAGGAUAUGGUAGACACAAUCGGGAUUGAGAAGGCCAGAAGGUACAUGAGGAUCACCCAUGUAAUCA [Eternabot (L2) Solution 58] (Eterna round: R97, puzzle: Exclusion 4) | 27.2 | 21.9 |  |  |  | 
UGAGUGCUGCGAGGAUAUACAUGAGGAUCACCCAUGUGGUCCUGUGAGGCAAAGCCUCACAGGAUGUAGAAGGCGCAGUACUCU [Mat - Exclusion NG 2 - Mod of JL - D45] (Eterna round: R96, puzzle: Exclusion NG 2) | 95.2 | 22.5 |  |  |  | 13.7
CUUGAGUGACAAGCUUUUUGCUCGUCUGUUAUUGAUGCUACAUGAGGAUCACCCAUGUUUAAGAUGUGUGAGGAUGG [JR_SV3TOV2_Sub054] (puzzle: Sensor v3, turn-off variant 2) |  |  | 48.9 | 36.7 | 35.6 | 
GUUACACAUGAGGAUCACCCAUGUAAGGAUAUGCUGCGGUCGCGCUGACGUGACUGCAGCAGAAGGUACAAUUG (puzzle: Exclusion 1) |  |  | 67.6 |  |  | 
CGCGCCUUUGUCAGGAUAUUCGGACGAGCCCGGCCGGAGAAGGGACUUGAGGAUCACCCAAGUGACGCGAAGAC [Anrearra] (Eterna round: R97, puzzle: Brourd's mod of Exclusion 4) | 35.1 | 31.9 |  |  |  | 
GAUUAUGCGAGCUUUAGGGACAUGAGGAUCACCCAUGUUCGUCUUAUUAGUCUGGGUGCACUGACAUACCUAAAUCU [JMF 93] (puzzle: Sensor v3, turn-off variant 1) |  |  | 202 | 169 | 320 | 
UAUGUUAGCACAGGAUAUUGUUAUUAUUUAAUUCAAGAAGGGUGUACAUGAGGAUCACCCAUGUUAUGGUUUUAUCUUUUACAA [JR_ExcNG1_Sub013] (Eterna round: R96, puzzle: Exclusion NG 1) |  |  |  |  |  | 957
UUAUUGGUUGUGAGGAUAUCGGAUAGAUAGAUAUUCGAGAAGGCACAUGAGGAUCACCCAUGUGUGAUUGGAAA [JR_BMEx4_Sub047] (Eterna round: R97, puzzle: Brourd's mod of Exclusion 4) | 276 | 27.9 |  |  |  | 
UCAAGUAUGUAGGAUAUCGAUGUCUACGGACAUCGAGAAGGACGUACAUGAGGAUCACCCAUGUAACUUGCAUG [Exclusion 6 - B - 10:d] (Eterna round: R96, puzzle: Exclusion 6) | 238 | 283 |  |  |  | 144
AUGCCGCUAGGAUAUUGCAGCUGAUACAUGAGGAUCACCCAUGUGACUCGCUGGGUAGUGUAAGAAGGAGUGUGCU [Eternabot (L2) Solution 27] (Eterna round: R97, puzzle: Exclusion 5) | 21.3 | 24 |  |  |  | 
GCGCCAUCGUGAGAUGGCGUACCAACAUGAGGAUCACCCAUGUAGGAUAUCGAUUGCUUUGCAGUCGAGAAGGGCAUGAUAAGU [JL ENG3 3.76] (Eterna round: R96, puzzle: Exclusion NG 3) |  |  |  |  |  | 17.2
AUGGGUCCUCACGGAGCUACAUGAGGAUCACCCAUGUGGAUUGAGGAUAUCGUAAGCCGACGGCACGAGAAGGCAGUUUACUGU [Ex NG3 #97] (Eterna round: R96, puzzle: Exclusion NG 3) | 47.5 | 23.5 |  |  |  | 22.8
AAGACACAUGAGGAUCACCCAUGUGAGGAUAUUUGAUGCGUACCUACAGGACUGCGAUAAAGAAGGCAUAAGGG [Eternabot (L2) Solution 80] (Eterna round: R97, puzzle: Exclusion 1) | 50.3 | 17.7 |  |  |  | 
CCAGCGUGUGUGAGGAUAUGCUGGUCCUUGGAUCAGCAGAAGGCACAUGAGGAUCACCCAUGUGAGAACGUUGG [JL bmx4 3.33] (puzzle: Brourd's mod of Exclusion 4) |  |  | 17.6 |  |  | 
GCUGUAGAAGGAUAUGCUUCGACUCACAUGAGGAUCACCCAUGUCUUCGUGCAGUCGUCUGCAGAAGGUCUCCAGU [EX5 C.8] (Eterna round: R97, puzzle: Exclusion 5) | 1820 | 504 |  |  |  | 
UUGCGCUGAGGAUAUAUAACCGAUGACAUGAGGAUCACCCAUGUGGAUACAAGGGACUGAAUAGAAGGUAGCCAGA [Eternabot (L1) Solution 69] (Eterna round: R97, puzzle: Exclusion 5) | 42.4 | 79.9 |  |  |  | 
AGGUGUAGAGGAUAUCUCUUCUCUCACAUGAGGAUCACCCAUGUCCUAAAGUCCUAGGAGAGAGAAGGCUACACCA [Omei Ex5 D3] (Eterna round: R97, puzzle: Exclusion 5) | 230 | 82.8 |  |  |  | 
